Data reported in patent publication US20060142192A1 (ZymoGenetics, published 2006).

Legend:
Test in all cases: flow cytometry, biotinylated IL-17C (1 ug/ml) + streptavidin-PE on stably transfected BHK cells
human ZcytoR21x6 = biological target: T1, human ZcytoR21x6 (human, UniProt Q8NFR9 24-667)
T1 construct: also called hcytor21x6
T1 sequence: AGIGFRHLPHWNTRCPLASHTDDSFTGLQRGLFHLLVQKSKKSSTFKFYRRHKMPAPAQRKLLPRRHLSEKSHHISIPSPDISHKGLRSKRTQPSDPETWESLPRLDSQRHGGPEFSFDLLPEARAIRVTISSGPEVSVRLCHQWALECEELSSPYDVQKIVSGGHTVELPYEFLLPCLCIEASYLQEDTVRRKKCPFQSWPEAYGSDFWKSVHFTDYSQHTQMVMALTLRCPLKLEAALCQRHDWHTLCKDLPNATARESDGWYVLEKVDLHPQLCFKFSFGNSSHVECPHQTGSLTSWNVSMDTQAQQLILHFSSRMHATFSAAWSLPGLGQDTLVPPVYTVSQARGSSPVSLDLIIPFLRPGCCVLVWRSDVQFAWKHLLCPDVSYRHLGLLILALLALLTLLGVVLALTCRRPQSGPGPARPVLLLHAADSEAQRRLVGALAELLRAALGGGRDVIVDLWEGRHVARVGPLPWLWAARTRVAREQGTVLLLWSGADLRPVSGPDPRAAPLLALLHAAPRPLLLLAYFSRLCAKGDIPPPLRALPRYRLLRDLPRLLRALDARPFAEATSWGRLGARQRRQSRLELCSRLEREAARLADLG
Protocol: (§1) BHK cells stably transfected with human and mouse ZcytoR21 splice variants were plated and grown to confluency in T-75 flasks. Cells were lifted off using a non-protease reagent such as Versene (Invitrogen 15040-066), pelleted, and resuspended in a staining reagent (HBSS+1% BSA+0.1% NaAzide+10 mM HEPES) at 2×10e7 cells/ml and aliquoted to a 96-well Costar plate. IL-17C that has been labeled with biotin was independently added to cells at a concentration of 1 ug/ml. The cell/ligand mixture can be incubated for 1 hr at 4 degrees. The wells were washed 1× in staining reagent, and incubated in a secondary reagent containing staining reagent plus Streptavidin-PE (BD Pharmingen 554061) at a 1:100 ratio. The wells were incubated at 4° C. in the dark for 1 hr, followed by a 2× wash in staining media. The cells were then resuspended in a 1:1 mixture of staining media and Cytofix (BD Bioscience 554655) and incubated 10 minutes at RT. The cells were analysed by Flow Cytometry and by gating on the PE positive events for cells that bound IL-17C.

human ZcytoR21x13 = biological target: T2, human ZcytoR21x13 (human, UniProt Q8NFR9 24-667)
T2 construct: also called hcytor21x13
T2 sequence: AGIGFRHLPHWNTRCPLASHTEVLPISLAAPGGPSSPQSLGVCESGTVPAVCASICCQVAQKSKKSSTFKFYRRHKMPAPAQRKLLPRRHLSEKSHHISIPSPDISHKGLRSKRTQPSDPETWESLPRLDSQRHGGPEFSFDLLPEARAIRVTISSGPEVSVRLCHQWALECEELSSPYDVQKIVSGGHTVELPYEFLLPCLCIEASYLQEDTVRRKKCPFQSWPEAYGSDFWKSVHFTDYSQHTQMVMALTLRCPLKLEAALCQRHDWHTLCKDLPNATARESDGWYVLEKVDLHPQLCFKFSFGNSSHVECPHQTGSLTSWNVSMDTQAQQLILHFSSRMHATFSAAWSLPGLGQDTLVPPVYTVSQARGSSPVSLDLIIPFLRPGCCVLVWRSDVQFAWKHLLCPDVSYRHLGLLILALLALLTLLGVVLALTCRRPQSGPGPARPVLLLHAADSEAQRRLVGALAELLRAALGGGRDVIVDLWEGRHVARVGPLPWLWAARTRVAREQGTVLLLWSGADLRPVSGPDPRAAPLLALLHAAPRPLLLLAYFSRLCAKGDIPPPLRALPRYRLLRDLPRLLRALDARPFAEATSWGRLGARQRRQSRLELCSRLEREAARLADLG
Protocol: as §1

murine ZcytoR21x6 = biological target: T3, murine ZcytoR21x6 (mouse, UniProt Q8BH06 24-637)
T3 construct: also called mouse ZcytoR21x6; mcytor21x6
T3 sequence: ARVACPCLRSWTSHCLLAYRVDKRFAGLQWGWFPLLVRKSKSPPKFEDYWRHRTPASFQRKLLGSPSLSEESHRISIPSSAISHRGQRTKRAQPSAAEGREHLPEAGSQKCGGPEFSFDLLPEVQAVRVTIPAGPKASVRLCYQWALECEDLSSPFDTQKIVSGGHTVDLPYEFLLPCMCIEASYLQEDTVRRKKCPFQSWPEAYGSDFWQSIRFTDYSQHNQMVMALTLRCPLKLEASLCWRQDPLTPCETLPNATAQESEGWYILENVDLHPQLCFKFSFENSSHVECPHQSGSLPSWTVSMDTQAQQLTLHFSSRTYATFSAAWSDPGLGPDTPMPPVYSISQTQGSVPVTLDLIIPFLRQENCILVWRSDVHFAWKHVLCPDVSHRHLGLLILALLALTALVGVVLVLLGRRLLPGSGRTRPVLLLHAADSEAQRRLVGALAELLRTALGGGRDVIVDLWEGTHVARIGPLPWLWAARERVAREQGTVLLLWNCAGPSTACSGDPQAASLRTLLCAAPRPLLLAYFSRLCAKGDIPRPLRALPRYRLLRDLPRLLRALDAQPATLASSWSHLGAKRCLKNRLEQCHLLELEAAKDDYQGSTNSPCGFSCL
Protocol: as §1

Measured: binding result

B1: human IL-17C (ligand)
chain: HHDPSLRGHPHSHGTPHCYSAEELPLGQAPPHLLARGAKWGQALPVALVSSLEAASHRGRHERPSATTQCPVLRPEEVLEADTHQRSISPWRYRVDTDEDRYPQKLAFAECLCRGCIDARTGRETAALNSVRLLQSLLVLRRRPCSRDGSGLPTPGAFAFHTEFIHVPVGCTCVLPRSV
modifications: biotin label in the binding assays (sites not given); unlabelled in the signalling assays
notes: it is the last residue of the open reading frame as I know it; Recombinant forms made carried a C-terminal Glu-Glu tag (BHK) or His tag (293F); also called biotinylated human IL-17C; human IL-17C (A903G)
binds: human ZcytoR21x6 | human ZcytoR21x13 | murine ZcytoR21x6
